According to patent US7011817B2, “Hydrophilic cyanine dyes” (Mallinckrodt Inc., priority 2000, dated 2006):

How the values were obtained:
[1] = Imaging of individual organs removed from CA20948 tumor-bearing rat; format: in vivo; settings: about 24 hours post administration
Experimental: Individual organs were removed at about 24 hours post Cytate 1 administration and imaged.

[2] = Monitoring of the blood clearance profile of peptide-dye conjugates; format: in vivo, Sprague-Dawley or Fischer 344 rats; settings: rat ear; monitored at 830 nm after excitation at 780 nm
Source text: A laser of appropriate wavelength for excitation of the dye chromophore was directed into one end of a fiber optic bundle and the other end was positioned a few millimeters from the ear of a rat. A second fiber optic bundle was also positioned near the same ear to detect the emitted fluorescent light and the other end was directed into the optics and electronics for data collection. An interference filter (IF) in the collection optics train was used to select emitted fluorescent light of the appropriate wavelength for the dye chromophore.
Sprague-Dawley or Fischer 344 rats were used in these studies. The animals were anesthetized with urethane administered via intraperitoneal injection at a dose of 1.35 g/kg body weight. After the animals had achieved the desired plane of anesthesia, a 21 gauge butterfly with 12″ tubing was placed in the lateral tail vein of each animal and flushed with heparinized saline. The animals were placed on a heating pad and kept warm throughout the entire study. The lobe of the left ear was affixed to a glass microscope slide to reduce movement and vibration.
Incident laser light delivered from the fiber optic was centered on the affixed ear. Data acquisition was then initiated, and a background reading of fluorescence was obtained prior to administration of the test agent. For Cytates 1 or 2, the peptide-dye conjugate was administered to the animal through a bolus injection, typically 0.5 to 2.0 mL, in the lateral tail vein. This procedure was repeated with several dye-peptide conjugates in normal and tumor-bearing rats. Representative profiles as a method to monitor blood clearance of the peptide-dye conjugate in normal and tumor-bearing animals are shown in FIGS. 12 to 16. The data were analyzed using a standard sigma plot software program for a one-compartment model.

[3] = system: Pancreatic Ductal Adenocarcinoma (DSL 6A); assay: In vivo fluorescence imaging of DSL 6A tumors in rats; design: species or system male Lewis rats
Source text: (§1) A non-invasive in vivo fluorescence imaging apparatus was employed to assess the efficacy of contrast agents developed for tumor detection in animal models. A LaserMax Inc. laser diode of nominal wavelength 780 nm and nominal power of 40 mW was used. The detector was a Princeton Instruments model RTE/CCD-1317-K/2 CCD camera with a Rodenstock 10 mm F2 lens (stock #542.032.002.20) attached. An 830 nm interference […] (CVI Laser Corp., part # F10-830-4-2) was mounted in front of the CCD input lens such that only emitted fluorescent light from the contrast agent was imaged. Typically, an image of the animal was taken pre-injection of contrast agent. This image was subsequently subtracted (pixel by pixel) from the post injection images. However, the background subtraction was […] done once the animal had been removed from the sample area and returned at a later time for images taken several hours post injection.
DSL 6A tumors were induced in male Lewis rats in the left flank area by the introduction of material from a solid (donor) implant, and the tumors were palpable in approximately 14 days. The animals were anesthetized with xylazine:ketamine:acepromazine, 1.5:1.5:0.5 at 0.8 mL/kg via intramuscular injection. The area of the tumor (left flank) was shaved to expose the tumor and the surrounding surface area. […]

[4] = system: Prostatic Carcinoma (R3327-H); assay: In vivo fluorescence imaging of prostatic carcinoma R3327-H in rats; design: species or system male Copenhagen rats
Source text: as §1
The imaging apparatus and the procedure used are described as in Example 12. Prostate tumors (Dunning R3327-H) were induced in young male Copenhagen rats in the left flank area from a solid implant. These tumors grow very slowly and palpable masses were present 4-5 months post implant. FIGS. 7C-D are images of a rat with an induced prostatic carcinoma tumor (R3327-H) imaged at two minutes (FIG. 7C) and 30 minutes (FIG. 7D) post injection.

[5] = system: Rat pancreatic acinar carcinoma expressing the SST-2 receptor (CA20948); assay: In vivo fluorescence imaging of pancreatic acinar carcinoma CA20948 in rats
Source text: as §1
The imaging apparatus and the procedure used are described in Example 12. Rat pancreatic acinar carcinoma expressing the SST-2 receptor (CA20948) was induced by solid implant technique in the left flank area, and palpable masses were detected nine days post implant. The images obtained at 2 and 30 minutes post injection are shown in FIGS. 7E-F. FIGS. 7E-F are images of a rat with an induced pancreatic acinar carcinoma (CA20948) expressing the SST-2 receptor imaged at two minutes (FIG. 7E) and 30 minutes (FIG. 7F) post injection.
The imaging apparatus and the procedure used are described in Example 12, except that each animal received 500 μl of a 1.0 mg/mL solution of Cytate 1 solution of 25% dimethylsulfoxide in water.
Rat pancreatic acinar carcinoma expressing the SST-2 receptor (CA20948) were induced by solid implant technique in the left flank area, and palpable masses were detected 24 days post implant. Images were obtained at various times post injection.
Cytate 1 was evaluated in the CA20948 Lewis rat model. […] At 27 hours post injection, the animal was again imaged (FIG. 9B).

Row | Structure (SMILES) | organ uptake: adrenals [1] | organ uptake: heart [1] | organ uptake: liver [1] | organ uptake: muscle [1] | organ uptake: pancreas [1] | organ uptake: spleen [1] | organ uptake: tumor tissue [1] | blood fluorescence signal after bolus injection (rise) [2] | blood fluorescence signal after the peak (clearance) [2] | dye intensity in the tumor ([3]; 30 minutes post-ICG injection, DSL 6A tumor, 500 μL of 0.42 mg/mL in water, tail vein) | perfusion of the agent into the tumor ([3]; DSL 6/A (pancreatic) tumor line) | dye intensity in the tumor ([4]; 30 minutes post-ICG injection, R3327-H tumor) | perfusion of the agent into the tumor ([4]; Dunning R3327H (prostate) tumor line) | dye intensity in the tumor ([5]; 30 minutes post-ICG injection, CA20948 tumor) | dye fluorescence in the tumor at 45 minutes ([5]; 45 minutes post injection, CA20948 tumor) | perfusion of the agent into the tumor ([5]; CA20948 (pancreatic) tumor line)
1 | C[C@@H](O)[C@H](NC(=O)[C@@H]1CSSC[C@H](NC(=O)[C@@H](Cc2ccccc2)NC(=O)CC[N+]2=C(/C=C/C=C/C=C/C=C3/N(CCC(=O)O)c4ccc5ccccc5c4C3(C)C)C(C)(C)c3c2ccc2ccccc32)C(=O)N[C@@H](Cc2ccc(O)cc2)C(=O)N[C@H](Cc2c[nH]c3ccccc23)C(=O)N[C@@H](CCCCN)C(=O)N[C@@H]([C@@H](C)O)C(=O)N1)C(=O)O [Cytate 1, monoOctreotate-Bisethylcarboxymethylindocyanine dye] | high uptake | significantly lower uptake | significantly lower uptake | significantly lower uptake | high uptake | significantly lower uptake | high uptake | rapidly increased to a peak value | decayed as a function of time |  |  |  |  |  |  | 
2 | C[C@@H](O)[C@H](NC(=O)[C@@H]1CSSC[C@H](NC(=O)[C@@H](Cc2ccccc2)NC(=O)CCN2C(=CC=CC=CC=CC3=[N+](CCC(=O)N[C@H](Cc4ccccc4)C(=O)N[C@H]4CSSC[C@@H](C(=O)N[C@H](C(=O)O)[C@@H](C)O)NC(=O)[C@H]([C@@H](C)O)NC(=O)[C@H](CCCCN)NC(=O)[C@@H](Cc5c[nH]c6ccccc56)NC(=O)[C@H](Cc5ccc(O)cc5)NC4=O)c4ccc5ccccc5c4C3(C)C)C(C)(C)c3c2ccc2ccccc32)C(=O)N[C@@H](Cc2ccc(O)cc2)C(=O)N[C@H](Cc2c[nH]c3ccccc23)C(=O)N[C@@H](CCCCN)C(=O)N[C@@H]([C@@H](C)O)C(=O)N1)C(=O)O [Cytate 2, bisOctreotate-Bisethylcarboxymethylindocyanine dye] |  |  |  |  |  |  |  | rapidly increased to a peak value | decayed as a function of time |  |  |  |  |  |  | 
3 | CC1(C)C(/C=C/C=C/C=C/C=C2\N(CCCCS(=O)(=O)O)c3ccc4ccccc4c3C2(C)C)=[N+](CCCCS(=O)(=O)[O-])c2ccc3ccccc3c21 [ICG, indocyanine green] |  |  |  |  |  |  |  |  |  | considerably diminished | slow perfusion of the agent over time into the tumor | considerably diminished | slow perfusion of the agent over time into the tumor | considerably diminished and almost absent | mostly cleared | only a slight but transient perfusion that was absent after only 30 minutes post injection
